Measured values: patent publication US6271440, “Plant regulatory proteins III” (The Australian National University)

Legend:
[1] = molecular target: T1, GAMYB (OsGAMYB) (Oryza sativa) (UniProt Q0JIC2); assay: cell_activity; conditions: GUS increase without GA versus empty Ubi1.cass effector
T1 sequence: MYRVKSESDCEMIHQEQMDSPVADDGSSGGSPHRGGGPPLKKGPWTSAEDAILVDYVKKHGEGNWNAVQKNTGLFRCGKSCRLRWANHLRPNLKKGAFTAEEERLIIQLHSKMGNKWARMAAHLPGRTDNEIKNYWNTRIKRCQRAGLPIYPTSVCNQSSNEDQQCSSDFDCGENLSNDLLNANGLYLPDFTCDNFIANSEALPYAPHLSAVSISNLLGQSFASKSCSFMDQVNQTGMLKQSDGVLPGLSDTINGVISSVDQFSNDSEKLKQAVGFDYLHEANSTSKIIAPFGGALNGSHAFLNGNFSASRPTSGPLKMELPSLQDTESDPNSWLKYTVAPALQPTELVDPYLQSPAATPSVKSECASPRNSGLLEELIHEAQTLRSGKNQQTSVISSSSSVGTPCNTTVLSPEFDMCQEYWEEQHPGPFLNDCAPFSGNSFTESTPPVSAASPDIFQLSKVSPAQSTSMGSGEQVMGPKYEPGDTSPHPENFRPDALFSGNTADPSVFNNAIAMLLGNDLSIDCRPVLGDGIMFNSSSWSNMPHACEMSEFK

[2] = molecular target: T2, GAMYB (HvGAMYB), GST fusion (Hordeum vulgare); assay: EMSA; 24 mM Hepes-KOH pH 7.9, 50 mM KCl, poly(dI-dC), 20 C; 100-fold cold w abolishes complex; conditions: tags: N-terminal GST (pGEX), E. coli XL1-blue; label: 32P; 5' overhangs
T2 chain: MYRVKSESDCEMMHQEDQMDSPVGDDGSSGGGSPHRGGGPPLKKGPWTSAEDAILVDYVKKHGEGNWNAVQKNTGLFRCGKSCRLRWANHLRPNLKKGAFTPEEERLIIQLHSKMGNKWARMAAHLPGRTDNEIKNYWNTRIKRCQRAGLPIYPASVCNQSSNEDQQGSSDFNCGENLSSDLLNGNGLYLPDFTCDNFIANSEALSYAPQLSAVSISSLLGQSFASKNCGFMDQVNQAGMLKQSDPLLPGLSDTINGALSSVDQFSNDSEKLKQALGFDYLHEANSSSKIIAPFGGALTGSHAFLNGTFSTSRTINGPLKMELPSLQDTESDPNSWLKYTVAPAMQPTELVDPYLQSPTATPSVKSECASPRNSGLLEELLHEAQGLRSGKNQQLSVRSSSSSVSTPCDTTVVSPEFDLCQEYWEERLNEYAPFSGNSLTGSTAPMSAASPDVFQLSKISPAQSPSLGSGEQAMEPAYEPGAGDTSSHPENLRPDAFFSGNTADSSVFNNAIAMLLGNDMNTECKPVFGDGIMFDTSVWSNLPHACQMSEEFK
Experimental: (§1) After annealing the complementary oligonucleotides were 3' end-labelled using ^32P-dCTp and the Klenow fragment, and purified by electrophoresis on polyacrylamide gels. Bacterially-produced GAMYB fusion protein-oligonucleotide binding reactions were performed in 10 µl binding buffer (24 mM Hepes-KOH pH 7.9, 50 mM KCl, 0.5 mM EDTA, 0.5 mM dithiothreitol, 10% (v/v) glycerol) with 2 µg of poly(dI-dC)-poly(dI-dC), 150 ng of GAMYB fusion protein and 0.9 ng of a $^32$P-labelled oligonucleotide probe (40,000 cpm). After incubation at 20° C. for 10 min, the samples were run on a 6% (w/v) polyacrylamide gel containing 5% (v/v) glycerol, in 0.25 x Tris-borate-EDTA buffer at 140 volts. After electrophoresis, the gels were dried and autoradiographed.
(§2) To test whether GAMYB binds to the TAACAAA box in the high-pI α-amylase promoter, we performed gel-retardation experiments as described in Example 8. We looked for binding between an oligonucleotide probe (w) containing the amylase promoter sequence (−149 to −128), including the wild-type TAACAAA box and an affinity-purified glutathione-s-transferase (GST)-GAMYB fusion protein that had been expressed in Escherichia coil according to Example 7. […] Experiments were also performed using mutant oligonucleotide probes (m-1 to m-5).

[3] = molecular target: Glutathione-S-transferase (GST control) (UniProt P08515 P08515:1-218); assay: EMSA; GST alone control; conditions: tags: pGEX vector; label: 32P; 5' overhangs
Experimental: as §1, §2

[4] = molecular target: T2, GAMYB (HvGAMYB), GST fusion; assay: EMSA; multi-bp mutation abolishes binding; conditions: tags: N-terminal GST (pGEX), E. coli XL1-blue; label: 32P; 5' overhangs
Experimental: as §1, §2

[5] = molecular target: T2, GAMYB (HvGAMYB), GST fusion; assay: EMSA; single mutation TGACAAAc; conditions: tags: N-terminal GST (pGEX), E. coli XL1-blue; label: 32P; 5' overhangs
Experimental: as §1, §2

[6] = molecular target: T2, GAMYB (HvGAMYB), GST fusion; assay: EMSA; TAACAGAc; mutation had no effect on binding; conditions: tags: N-terminal GST (pGEX), E. coli XL1-blue; label: 32P; 5' overhangs
Experimental: as §1, §2

[7] = molecular target: T2, GAMYB (HvGAMYB), GST fusion; assay: EMSA; single mutation at 3' end of site; conditions: tags: N-terminal GST (pGEX), E. coli XL1-blue; label: 32P; 5' overhangs
Experimental: as §1, §2

Chain of Glutathione-S-transferase (GST control) (P08515 whole entry, one chain of several): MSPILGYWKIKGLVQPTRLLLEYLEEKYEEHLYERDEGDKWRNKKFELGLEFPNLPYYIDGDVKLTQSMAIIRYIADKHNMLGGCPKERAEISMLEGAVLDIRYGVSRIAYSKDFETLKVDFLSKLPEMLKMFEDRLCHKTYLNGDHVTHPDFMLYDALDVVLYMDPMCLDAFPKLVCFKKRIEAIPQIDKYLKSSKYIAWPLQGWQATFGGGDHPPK

**Q.** How did the activity [1] turn out when “Amy32b low-pI alpha-amylase promoter (mlo22)” was run?
**A.** The activity was 176 fold.

B1: w (dsDNA)
DNA 1: GGCCGATAACAAACTCCGG
DNA 2: CCGGAGTTTGTTATCGGCC
**Q.** Does B1 bind [2]?
**A.** Result: binds

**Q.** Does B1 bind [3]?
**A.** Result: no binding

B2: m-1 (dsDNA)
DNA 1: GGCCGACTCGAGACTCCGG
DNA 2: CCGGAGTCTCGAGTCGGCC
**Q.** Does B2 bind [4]?
**A.** Result: no binding

B3: m-2 (dsDNA)
DNA 1: GGCCGATGACAAACTCCGG
DNA 2: CCGGAGTTTGTCATCGGCC
**Q.** Does B3 bind [5]?
**A.** Result: no binding

B4: m-3 (dsDNA)
DNA 1: GGCCGATAACAGACTCCGG
DNA 2: CCGGAGTCTGTTATCGGCC
**Q.** Does B4 bind [6]?
**A.** Result: binds

B5: m-4 (dsDNA)
DNA 1: GGCCGATAACAAGCTCCGG
DNA 2: CCGGAGCTTGTTATCGGCC
**Q.** Does B5 bind [7]?
**A.** Result: no binding

B6: m-5 (dsDNA)
DNA 1: GGCCGATAACAAAATCCGG
DNA 2: CCGGATTTTGTTATCGGCC
**Q.** Does B6 bind [7]?
**A.** Result: no binding
